From patent publication US20080194522A1, “Development of Fluorogenic Substrates For Monoamine Oxidases (Mao-A and Mao-B)” (priority 2004, published 2008)
Where two headings read alike, the source gives them in different places.

B1: MAO-B (Bos taurus) (protein)
chain: MSSKCDVVVVGGGISGMAAAKLLHDSGLNVIVLEARDRVGGRTYTLRNQKVKYVDLGGSYVGPTQNHILRLSKELGLETYKVNEVERLIHHTKGKSYPFRGSFPSVWNPITYLDHNNLWRTMDDMGREIPSDAPWKAPLAEQWDLMTMKELLDKICWTESSKQLAILFVNLCVTAEIHEVSALWFLWYVKQCGGTTRIFSTSNGGQERKFVGGSGQVSERIMDLLGDRVKLERPVIHIDQTGENVLVETLNHELYEAKYVISAVPPVLGMKIHFNPPLPMMRNQLITRVPLGSVIKSIVYYKEPFWRNMDYCGSMIIEGEEAPVAYALDDTKPDGSYPAIIGFILAHKARKLARLTKEERLKKLCDLYAKVLGSQEALHPVHYEEKNWCEEQYSGGCYTSYFPPGIMTQYGRVLRQPVGRIYFAGTETATHWSGYMEGAVEAGERAAREILHAMGKIPEDEIWLPEPESVDVPAKPITTTFLQRHLPSVPGLLKLIGLTTIFSATALGFLAHKRGLLVRI
B2: MAO-A (Homo sapiens) (protein)
chain: MENQEKASIAGHMFDVVVIGGGISGLSAAKLLTEYGVSVLVLEARDRVGGRTYTIRNEHVDYVDVGGAYVGPTQNRILRLSKELGIETYKVNVSERLVQYVKGKTYPFRGAFPPVWNPIAYLDYNNLWRTIDNMGKEIPTDAPWEAQHADKWDKMTMKELIDKICWTKTARRFAYLFVNINVTSEPHEVSALWFLWYVKQCGGTTRIFSVTNGGQERKFVGGSGQVSERIMDLLGDQVKLNHPVTHVDQSSDNIIIETLNHEHYECKYVINAIPPTLTAKIHFRPELPAERNQLIQRLPMGAVIKCMMYYKEAFWKKKDYCGCMIIEDEDAPISITLDDTKPDGSLPAIMGFILARKADRLAKLHKEIRKKKICELYAKVLGSQEALHPVHYEEKNWCEEQYSGGCYTAYFPPGIMTQYGRVIRQPVGRIFFAGTETATKWSGYMEGAVEAGERAAREVLNGLGKVTEKDIWVQEPESKDVPAVEITHTFWERNLPSVSGLLKIIGFSTSVTALGFVLYKYKLLPRS

Substrate: NCCc1cc2oc(=O)ccc2cc1N
Experiment: purified protein, by the assay type

Protein	Km	Km (pH 7.4)
B1	510 ± 40 µM	13 µM
B2	30.9 ± 1.8 µM	31 µM
